Residue numbers refer to the chain shown, from its start.
B1: cr387 (nucleic acid)
guide: GTTTAAGAGCTAAGCTGGAAACAGCATAGCAAGTTTAAATAAGGCTCGTCCGTTATCAACTTGAAAAAGTGGCACCGAGTCGGTGCT
modifications: listed as DNA, chemistry not fully specified
B2: cr503 (nucleic acid)
guide: B1 guide with C47A, T84G
modifications: listed as DNA, chemistry not fully specified
B3: cr863 (nucleic acid)
guide: B1 guide with A23C, C47A
modifications: listed as DNA, chemistry not fully specified
B4: cr256 (nucleic acid)
guide: B1 guide with G29A, C47A
modifications: listed as DNA, chemistry not fully specified
B5: cr777 (nucleic acid)
guide: B1 guide with C47A, T53G
modifications: listed as DNA, chemistry not fully specified
B6: cr141 (nucleic acid)
guide: B1 guide with T46C, C47A, A65G
modifications: listed as DNA, chemistry not fully specified
B7: cr626 (nucleic acid)
guide: B1 guide with C47A, A65C, A78C
modifications: listed as DNA, chemistry not fully specified
B8: cr367 (nucleic acid)
guide: B1 guide with G44A, C47A, C50T, T62C, A67G, C73T, G85A
modifications: listed as DNA, chemistry not fully specified
B9: cr702 (nucleic acid)
guide: B1 guide with C47A, G72C
modifications: listed as DNA, chemistry not fully specified
B10: cr402 (nucleic acid)
guide: B1 guide with A23T, C47A
modifications: listed as DNA, chemistry not fully specified
B11: cr694 (nucleic acid)
guide: B1 guide with C47A, T53G, A64T
modifications: listed as DNA, chemistry not fully specified
B12: cr206 (nucleic acid)
guide: B1 guide with C47A, T61C, G79C
modifications: listed as DNA, chemistry not fully specified
B13: cr013 (nucleic acid)
guide: B1 guide with A5G, C47A
modifications: listed as DNA, chemistry not fully specified
B14: cr705 (nucleic acid)
guide: B1 guide with C47A, C76G, G82C
modifications: listed as DNA, chemistry not fully specified
B15: cr520 (nucleic acid)
guide: B1 guide with C47A, T53A, A64C
modifications: listed as DNA, chemistry not fully specified
B16: cr123 (nucleic acid)
guide: B1 guide with C47A, T61G
modifications: listed as DNA, chemistry not fully specified
B17: cr488 (nucleic acid)
guide: B1 guide with C47A, C73G, G85C
modifications: listed as DNA, chemistry not fully specified
B18: cr909 (nucleic acid)
guide: B1 guide with G29T, C47A, T54G, A64T
modifications: listed as DNA, chemistry not fully specified
B19: cr869 (nucleic acid)
guide: B1 guide with C47A, T70A
modifications: listed as DNA, chemistry not fully specified
B20: cr806 (nucleic acid)
guide: B1 guide with A42G, C47A
modifications: listed as DNA, chemistry not fully specified
B21: cr358 (nucleic acid)
guide: B1 guide with C45T, C47A, G48A, C60G, G69C, C76T, G82A
modifications: listed as DNA, chemistry not fully specified
B22: cr984 (nucleic acid)
guide: B1 guide with C47A, C86G
modifications: listed as DNA, chemistry not fully specified
B23: cr749 (nucleic acid)
guide: B1 guide with A31G, C47A, T54C, A78C
modifications: listed as DNA, chemistry not fully specified
B24: cr414 (nucleic acid)
guide: B1 guide with C47A, A74T
modifications: listed as DNA, chemistry not fully specified
B25: cr286 (nucleic acid)
guide: B1 guide with T46G, C47A, A65G
modifications: listed as DNA, chemistry not fully specified
B26: cr617 (nucleic acid)
guide: B1 guide with C45T, C47A, G48A, A59G, T61G, A68C, T70C
modifications: listed as DNA, chemistry not fully specified
B27: cr759 (nucleic acid)
guide: B1 guide with A65G
modifications: listed as DNA, chemistry not fully specified
B28: cr396 (nucleic acid)
guide: B1 guide with C47A, C75A, G77A, C81T, G83T
modifications: listed as DNA, chemistry not fully specified
B29: cr781 (nucleic acid)
guide: B1 guide with C47A, G85C
modifications: listed as DNA, chemistry not fully specified
B30: cr729 (nucleic acid)
guide: B1 guide with C22T, C47A
modifications: listed as DNA, chemistry not fully specified

Test system: K562 CRISPRi cells
Experiment: Constant region variant library pooled growth screen, K562
Format: cell-based, human
Settings: sgRNA constant region variants
Text: We calculated relative activities for each targeting sequence:constant region pair by normalizing its phenotype to that of the targeting sequence paired with the unmodified constant region, identifying 409 constant region variants that on average conferred intermediate activity (0.1-0.9, FIG. 5B). Ten variants selected for individual evaluation also mediated intermediate levels of mRNA knockdown (FIG. 6B). Mapping the activities of constant region variants with single base substitutions onto the structure recapitulated known relationships between constant region structure and function (FIG. 5C).
The sequences in the library of modified constant regions were derived from the sgRNA (F+E) optimized sequence (23) modified to include a BlpI site (15). Each modified constant region was paired with 36 sgRNA targeting sequences (3 sgRNAs targeting each of 10 essential genes and six non-targeting negative control sgRNAs). The cloning strategy (described below) allowed the mutation of most positions in the sgRNA constant region. A variety of modifications were made, including substitutions of all single bases not in the BlpI restriction site (which is used for cloning), double substitutions including all substitutions at base-paired position pairs not before or in the BlpI site, and a variety of triple, quadruple, and sextuple substitutions, including base-pair-preserving substitutions at adjacent base-pairs.
The library was ordered and cloned in two parts. One part consisted of ˜100 modifications to the eight bases upstream of the BlpI restriction site. Constant region variants with mutations in this section were paired with each of the 36 targeting sequences, ordered as a pooled oligonucleotide library (Twist Biosciences), and cloned into pCRISPRia-v2 as described above. The second part consisted of ˜900 modifications to the 71 bases downstream of the BlpI restriction site. This part was cloned in two steps. First, all 36 targeting sequences were individually cloned into pCRISPRia-v2 as described above. The vectors were then pooled at an equimolar ratio and digested with BlpI (NEB) and XhoI (NEB). The modified constant region variants were ordered as a pooled oligonucleotide library (Twist Biosciences), PCR amplified with Phusion polymerase (NEB), digested with BlpI (NEB) and XhoI (NEB), and ligated into the digested vector pool, in a manner identical to previously published protocols and as described above, except for the different restriction enzymes.
Screens with the compact mismatched sgRNA library and the constant region library were conducted largely as described above, with smaller modifications during the screening procedure and an updated sequencing library preparation protocol. Briefly, the libraries were transduced in duplicate into K562 CRISPRi (both libraries) or HeLa CRISPRi cells (compact mismatched sgRNA library) as described above. K562 replicates were maintained separately in 0.15 to 0.3 L of RPMI-1640 in 0.3 L spinner flasks for the course of the screen. HeLa replicates were maintained in sets of ten 15-cm plates. Cells were selected with puromycin as described above (K562: 1 day of 0.75 μg/mL and 1 day of 0.85 μg/mL; HeLa: 2 days of 0.8 μg/mL and 1 day of 1 μg/mL). The remainder of the screen was carried out at >1000× library coverage (K562 compact mismatched sgRNA library: >2000×; HeLa compact mismatched sgRNA library: >1000×; K562 constant region library: >2000×). Multiple samples were harvested after 4 to 8 days of growth. For the drug screen, 10 μM lovastatin (ApexBio) or an equivalent volume of DMSO (vehicle) was added to flasks at t=0, and 3 days later cells were pelleted and re-suspended in fresh medium. Lovastatin (12 μM) or DMSO was again added after 5 and 9 days of growth, with media exchanges 3 days after drug supplementation. Multiple samples were harvested after 4 to 8 days for the K562 and HeLa growth screens. […]

[1] = activity relative to the un-modified constant region cr995
[2] = activity relative to the original, un-modified constant region cr995

Row | Molecule | Mean relative activity [1] | Mean relative activity [2]
1 | B1 | 0.9094 | 
2 | B2 | 0.9079 | 
3 | B3 | 0.9031 | 
4 | B4 | 0.9023 | 
5 | B5 | 0.9022 | 
6 | B6 | 0.9018 | 
7 | B7 | 0.9006 | 
8 | B8 | 0.8998 | 
9 | B9 |  | 0.8977
10 | B10 |  | 0.8977
11 | B11 |  | 0.8963
12 | B12 |  | 0.8946
13 | B13 |  | 0.8907
14 | B14 |  | 0.8901
15 | B15 |  | 0.8874
16 | B16 |  | 0.8871
17 | B17 |  | 1.06
18 | B18 |  | 0.8864
19 | B19 |  | 0.8861
20 | B20 |  | 0.8861
21 | B21 |  | 0.886
22 | B22 |  | 0.8858
23 | B23 |  | 0.8857
24 | B24 |  | 0.8852
25 | B25 |  | 0.885
26 | B26 |  | 1.058
27 | B27 |  | 0.8842
28 | B28 |  | 0.8826
29 | B29 |  | 0.8813
30 | B30 |  | 0.8793
